Laboratory results from patent US20250270301A1 (GEN2 NEUROSCIENCE, published 2025).
Where two headings read alike, the source gives them in different places.

Key:
[1] = biological target: T1, full length recombinant human 2N4R tau (human, UniProt P10636 1-758); experiment: SPR SCK, IgG on Protein A, tau in flow
T1 construct: bought from rPeptide; pHrodo Red maleimide-labelled where it stands in uptake assays; also called tau1-441; full length tau
Protocol: 21.5 Assessment of antibody binding to tau (Biacore SCK analysis): Binding of anti-tau hIgG1 to full length recombinant 2N4R tau (Rpeptide; SEQ ID NO: 2) was assessed using the Biacore T200 (GE Healthcare, Chicago, IL, USA) running Biacore T200 Evaluation Software V2.0.1. hIgG1 were immobilised on a Protein A capture sensor chip in running buffer (HBS-EP+ buffer containing 1 mg/mL BSA) at 25° C., captured to ˜50 RU at 10 μL/min. For single-cycle kinetics experiments, recombinant 2N4R tau was flowed at concentrations ranging from 1.25 nM to 10 nM (2-fold dilutions) with an association time of 60 s and a dissociation time of 200 s. Curves were compared to a reference cell that was mock immobilized (no antibody present).

Bovine serum albumin = biological target: T2, Bovine serum albumin (bovine, UniProt P02769 25-607); experiment: ELISA on 1% BSA, HEK supernatant, anti-human IgG-HRP, n=1
T2 construct: also called BSA
Protocol: FIG. 7. A panel of humanised anti-tau IgG bind to full length recombinant 2N4R tau in an ELISA format. Supernatants from HEK cells transiently transfected with each IgG clone were tested at 1:100 for binding to full length recombinant 2N4R tau (solid bars). […] Binding of anti-tau hIgG1 was detected using an HRP-conjugated anti-human secondary antibody and data are shown from a representative experiment (n=1 replicate).
Antigen was removed from wells and the plates were then blocked for 1 hour at RT with 5% dried milk in 1×TBS. Blocking solution was removed, HEK293 cell supernatant (1:100 in 1% BSA/1×TBS) was added to relevant wells, and plates were incubated for 1 hour at RT with gentle shaking. Plates were then washed four times with TBS/0.1% Tween (TBST). Goat anti-human IgG-HRP antibody (Thermo Fisher Scientific, Waltham, MA, USA), diluted 1:2000 in 5% milk/TBS, was added to each well and plates were incubated for 1 hour at RT with gentle shaking before being washed four times with TBST. 3,3′,5,5′-tetramethylbenzidine (TMB) ELISA solution was added to each well and plates were incubated for 15 mins at RT. An equal volume of 1 M sulfuric acid was added to each well and OD was measured at 450 nm.

[2] = biological target: T1, full length recombinant human 2N4R tau; experiment: SPR SCK, IgG on Protein A, tau in flow; remark: listed apart in the source

T1 sequence (P10636 other isoform, or with tags, fused parts or gaps limits assumed): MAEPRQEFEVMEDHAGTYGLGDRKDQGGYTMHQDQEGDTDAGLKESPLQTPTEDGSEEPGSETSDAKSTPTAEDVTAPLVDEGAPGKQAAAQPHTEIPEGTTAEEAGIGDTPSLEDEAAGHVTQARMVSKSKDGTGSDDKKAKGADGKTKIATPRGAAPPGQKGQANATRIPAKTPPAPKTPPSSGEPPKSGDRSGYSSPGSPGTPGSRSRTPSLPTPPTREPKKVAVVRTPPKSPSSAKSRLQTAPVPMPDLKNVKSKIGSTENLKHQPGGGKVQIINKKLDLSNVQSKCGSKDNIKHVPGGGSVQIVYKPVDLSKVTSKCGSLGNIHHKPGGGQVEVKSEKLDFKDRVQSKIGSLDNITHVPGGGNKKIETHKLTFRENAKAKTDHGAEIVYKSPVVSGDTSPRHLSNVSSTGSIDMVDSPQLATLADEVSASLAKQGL
T2 sequence (P02769 25-607 limits assumed): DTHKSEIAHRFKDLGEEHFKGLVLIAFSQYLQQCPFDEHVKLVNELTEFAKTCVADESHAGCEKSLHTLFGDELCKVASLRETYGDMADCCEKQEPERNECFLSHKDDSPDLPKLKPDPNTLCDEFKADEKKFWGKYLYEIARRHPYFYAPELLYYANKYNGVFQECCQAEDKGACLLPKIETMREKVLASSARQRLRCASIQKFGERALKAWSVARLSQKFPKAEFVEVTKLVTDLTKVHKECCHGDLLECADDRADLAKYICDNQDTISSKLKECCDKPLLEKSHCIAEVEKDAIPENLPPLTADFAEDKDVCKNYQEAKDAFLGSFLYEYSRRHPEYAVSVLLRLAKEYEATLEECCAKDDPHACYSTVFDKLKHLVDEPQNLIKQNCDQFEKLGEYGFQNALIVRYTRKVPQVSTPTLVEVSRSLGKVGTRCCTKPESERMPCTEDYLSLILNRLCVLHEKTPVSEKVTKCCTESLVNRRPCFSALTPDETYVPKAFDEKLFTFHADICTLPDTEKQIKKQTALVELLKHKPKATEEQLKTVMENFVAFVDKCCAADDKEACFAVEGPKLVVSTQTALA

B1: #44 VH3VK2 humanised hIgG1 (antibody, V domains shown)
VH: QVQLQESGPGLVKPSETLSLTCTVSGIDLSSYAMAWVRQAPGKGLEWIGCIDRRGGTFYASWVKGRFTISKTSTTVDLQMTSLTAEDTATYFCARDSGAFDPWGQGTLVTVSS
VL: QIVMTQSPSSLSASVGDRVTITCQASQSVYDNYLAWYQQKPGQPPKLLIHAASNLASGVPSRFKGSGSGTEFTLTISSLQPDDFATYYCLGEFSCTTTDCNVFGGGTKVEIK
notes: also called VH3Vκ2
Kd [1]: 7.64 nM
Relative KD (to VH0VK0) [1]: 1.99
koff [1]: 0.0356 s⁻¹
kon [1]: 4.66e+06 M⁻¹ s⁻¹
binding result (Bovine serum albumin): no binding (tested: supernatant 1:100)

B2: #44 VH6VK4 humanised hIgG1 (antibody, V domains shown)
VH: QVQLQESGPGLVKPSETLSLTCTVSGIDLSSYAMSWVRQAPGKGLEWVSCIDRRGGTFYASWVKGRFTISRDNSKNTLDLQMTSLTAEDTATYYCARDSGAFDPWGQGTLVTVSS
VL: DIQMTQSPSSLSASVGDRVTITCQASQSVYDNYLAWYQQKPGQPPKLLIHAASNLASGVPSRFSGSGSGTEFTLTISSLQPDDFATYYCLGEFSCTTTDCNVFGGGTKVEIK
notes: also called VH6Vκ4
binding result (Bovine serum albumin): no binding (tested: supernatant 1:100)

B3: #44 VH6VK2 humanised hIgG1 (antibody, V domains shown)
VH: QVQLQESGPGLVKPSETLSLTCTVSGIDLSSYAMSWVRQAPGKGLEWVSCIDRRGGTFYASWVKGRFTISRDNSKNTLDLQMTSLTAEDTATYYCARDSGAFDPWGQGTLVTVSS
VL: QIVMTQSPSSLSASVGDRVTITCQASQSVYDNYLAWYQQKPGQPPKLLIHAASNLASGVPSRFKGSGSGTEFTLTISSLQPDDFATYYCLGEFSCTTTDCNVFGGGTKVEIK
notes: also called VH6Vκ2
binding result (Bovine serum albumin): no binding (tested: supernatant 1:100)

B4: #44 VH4VK1 humanised hIgG1 (antibody, V domains shown)
VH: QVQLQESGPGLVKPSETLSLTCTVSGIDLSSYAMAWVRQAPGKGLEWIGCIDRRGGTFYASWVKGRFTISKDTSKTTVDLQMTSLTAEDTATYFCARDSGAFDPWGQGTLVTVSS
VL: QIVMTQSPSSLSASVGDRVTITCQASQSVYDNYLAWYQQKPGQPPKLLIHAASNLASRVPSRFKGSGSGTEFTLTISSLQCDDFATYYCLGEFSCTTTDCNVFGGGTEVVIK
notes: also called VH4Vκ1
Kd [1]: 6.81 nM
Relative KD (to VH0VK0) [1]: 1.78
koff [1]: 0.03 s⁻¹
kon [1]: 4.4e+06 M⁻¹ s⁻¹
binding result (Bovine serum albumin): no binding (tested: supernatant 1:100)

B5: #44_VH4VK4_H06-H04/pVL (antibody, V domains shown)
VH: QVQLQESGPGLVKPSETLSLTCTVSGIDLSSYAMAWVRQAPGKGLEWIGVIDAAGHTFYASWVKGRFTISKDTSKTTVDLQMTSLTAEDTATYFCARDAGSFHPWGQGTLVTVSS
VL: DIQMTQSPSSLSASVGDRVTITCQASQSVYDNYLAWYQQKPGQPPKLLIHAASNLASGVPSRFSGSGSGTEFTLTISSLQPDDFATYYCLGEFSCTTTDCNVFGGGTKVEIK
notes: also called H06-04/pVL; Clone VH4_H06_H04
Fold change (KD, to pVH/pVL) [2]: 9.11
Kd [2]: 0.722 nM
koff [2]: 0.00443 s⁻¹
kon [2]: 6.14e+06 M⁻¹ s⁻¹

B6: #44_VH4VK4_H16-H04/pVL (antibody, V domains shown)
VH: QVQLQESGPGLVKPSETLSLTCTVSGIDLSSYAMAWVRQAPGKGLEWIGAIDRAGNTFYASWVKGRFTISKDTSKTTVDLQMTSLTAEDTATYFCARDAGSFHPWGQGTLVTVSS
VL: DIQMTQSPSSLSASVGDRVTITCQASQSVYDNYLAWYQQKPGQPPKLLIHAASNLASGVPSRFSGSGSGTEFTLTISSLQPDDFATYYCLGEFSCTTTDCNVFGGGTKVEIK
notes: also called Clone VH4_H16_H04; #44_VH4_H16-H04
Fold change (KD, to pVH/pVL) [2]: 7.88
Kd [2]: 0.835 nM
koff [2]: 0.00417 s⁻¹
kon [2]: 4.99e+06 M⁻¹ s⁻¹

B7: #44 VH6VK3 humanised hIgG1 (antibody, V domains shown)
VH: QVQLQESGPGLVKPSETLSLTCTVSGIDLSSYAMSWVRQAPGKGLEWVSCIDRRGGTFYASWVKGRFTISRDNSKNTLDLQMTSLTAEDTATYYCARDSGAFDPWGQGTLVTVSS
VL: DIQMTQSPSSLSASVGDRVTITCQASQSVYDNYLAWYQQKPGQPPKLLIHAASNLASGVPSRFKGSGSGTEFTLTISSLQPDDFATYYCLGEFSCTTTDCNVFGGGTKVEIK
notes: also called VH6Vκ3
binding result (Bovine serum albumin): no binding (tested: supernatant 1:100)

B8: #44_VH4VK4_H06-H01/pVL (antibody, V domains shown)
VH: QVQLQESGPGLVKPSETLSLTCTVSGIDLSSYAMAWVRQAPGKGLEWIGVIDAAGHTFYASWVKGRFTISKDTSKTTVDLQMTSLTAEDTATYFCARDVGSFDVWGQGTLVTVSS
VL: DIQMTQSPSSLSASVGDRVTITCQASQSVYDNYLAWYQQKPGQPPKLLIHAASNLASGVPSRFSGSGSGTEFTLTISSLQPDDFATYYCLGEFSCTTTDCNVFGGGTKVEIK
notes: also called H06-01/pVL; Clone VH4H_06_H01
Fold change (KD, to pVH/pVL) [2]: 1.71
Kd [2]: 3.85 nM
koff [2]: 0.0121 s⁻¹
kon [2]: 3.15e+06 M⁻¹ s⁻¹

B9: #44_VH4VK4_H06-H02/pVL (antibody, V domains shown)
VH: QVQLQESGPGLVKPSETLSLTCTVSGIDLSSYAMAWVRQAPGKGLEWIGVIDAAGHTFYASWVKGRFTISKDTSKTTVDLQMTSLTAEDTATYFCARDRGDFDVWGQGTLVTVSS
VL: DIQMTQSPSSLSASVGDRVTITCQASQSVYDNYLAWYQQKPGQPPKLLIHAASNLASGVPSRFSGSGSGTEFTLTISSLQPDDFATYYCLGEFSCTTTDCNVFGGGTKVEIK
notes: also called H06-02/pVL; Clone VH4_H06_H02
Fold change (KD, to pVH/pVL) [2]: 7.73
Kd [2]: 0.851 nM
koff [2]: 0.00489 s⁻¹
kon [2]: 5.75e+06 M⁻¹ s⁻¹

B10: #44 VH3VK1 humanised hIgG1 (antibody, V domains shown)
VH: QVQLQESGPGLVKPSETLSLTCTVSGIDLSSYAMAWVRQAPGKGLEWIGCIDRRGGTFYASWVKGRFTISKTSTTVDLQMTSLTAEDTATYFCARDSGAFDPWGQGTLVTVSS
VL: QIVMTQSPSSLSASVGDRVTITCQASQSVYDNYLAWYQQKPGQPPKLLIHAASNLASRVPSRFKGSGSGTEFTLTISSLQCDDFATYYCLGEFSCTTTDCNVFGGGTEVVIK
notes: also called VH3Vκ1
Kd [1]: 4.35 nM
Relative KD (to VH0VK0) [1]: 1.14
koff [1]: 0.0121 s⁻¹
kon [1]: 2.79e+06 M⁻¹ s⁻¹
binding result (Bovine serum albumin): no binding (tested: supernatant 1:100)

B11: #44_VH4_H07/L2 (antibody, V domains shown)
VH: QVQLQESGPGLVKPSETLSLTCTVSGIDLSSYAMAWVRQAPGKGLEWIGAIDAAGNTFYASWVKGRFTISKDTSKTTVDLQMTSLTAEDTATYFCARDSGAFDPWGQGTLVTVSS
VL: DIQMTQSPSSLSASVGDRVTITCQASQSVYDNYLAWYQQKPGQPPKLLIHAASNLASGVPSRFSGSGSGTEFTLTISSLQPDDFATYYCLGEFSCQDTDCNVFGGGTKVEIKR
notes: also called Clone VH4_H07/L2
Fold change (KD, to pVH/pVL) [2]: 0.26
Kd [2]: 24.9 nM
koff [2]: 0.0124 s⁻¹
kon [2]: 497000 M⁻¹ s⁻¹

B12: #44_VH4_H13/L2 (antibody, V domains shown)
VH: QVQLQESGPGLVKPSETLSLTCTVSGIDLSSYAMAWVRQAPGKGLEWIGAIDSAGNTFYASWVKGRFTISKDTSKTTVDLQMTSLTAEDTATYFCARDSGAFDPWGQGTLVTVSS
VL: DIQMTQSPSSLSASVGDRVTITCQASQSVYDNYLAWYQQKPGQPPKLLIHAASNLASGVPSRFSGSGSGTEFTLTISSLQPDDFATYYCLGEFSCQDTDCNVFGGGTKVEIKR
notes: also called Clone VH4_H13/L2
Fold change (KD, to pVH/pVL) [2]: 0.28
Kd [2]: 23.5 nM
koff [2]: 0.00844 s⁻¹
kon [2]: 358000 M⁻¹ s⁻¹

B13: #44_VH4_H06/L2 (antibody, V domains shown)
VH: QVQLQESGPGLVKPSETLSLTCTVSGIDLSSYAMAWVRQAPGKGLEWIGVIDAAGHTFYASWVKGRFTISKDTSKTTVDLQMTSLTAEDTATYFCARDSGTFDPWGQGTLVTVSS
VL: DIQMTQSPSSLSASVGDRVTITCQASQSVYDNYLAWYQQKPGQPPKLLIHAASNLASGVPSRFSGSGSGTEFTLTISSLQPDDFATYYCLGEFSCQDTDCNVFGGGTKVEIKR
notes: also called Clone VH4_H06/L2
Fold change (KD, to pVH/pVL) [2]: 3.54
Kd [2]: 1.86 nM
koff [2]: 0.00841 s⁻¹
kon [2]: 4.52e+06 M⁻¹ s⁻¹

B14: #44_VH4_H14/L2 (antibody, V domains shown)
VH: QVQLQESGPGLVKPSETLSLTCTVSGIDLSSYAMAWVRQAPGKGLEWIGAIDSAGSTFYASWVKGRSTISKDTSKTTVDLQMTSLTAEDTATYFCARDSGAFDPWGQGTLVTVSS
VL: DIQMTQSPSSLSASVGDRVTITCQASQSVYDNYLAWYQQKPGQPPKLLIHAASNLASGVPSRFSGSGSGTEFTLTISSLQPDDFATYYCLGEFSCQDTDCNVFGGGTKVEIKR
notes: also called Clone VH4_H14/L2
Fold change (KD, to pVH/pVL) [2]: 0.52
Kd [2]: 12.6 nM
koff [2]: 0.0161 s⁻¹
kon [2]: 1.28e+06 M⁻¹ s⁻¹

B15: #44_VH4_H09/L2 (antibody, V domains shown)
VH: QVQLQESGPGLVKPSETLSLTCTVSGIDLSSYAMAWVRQAPGKGLEWIGAIDARGNTFYASWVKGRFTISKDTSKTTVDLQMTSLTAEDTATYFCARDSGAFDPWGQGTLVTVSS
VL: DIQMTQSPSSLSASVGDRVTITCQASQSVYDNYLAWYQQKPGQPPKLLIHAASNLASGVPSRFSGSGSGTEFTLTISSLQPDDFATYYCLGEFSCQDTDCNVFGGGTKVEIKR
notes: also called Clone VH4_H09/L2
Fold change (KD, to pVH/pVL) [2]: 0.45
Kd [2]: 14.6 nM
koff [2]: 0.0106 s⁻¹
kon [2]: 728000 M⁻¹ s⁻¹
